In this experiment the target is CDK9 (UniProt P50750). Kind of experiment: co-IP with FLAG or HA antibody, immunoblot. Conditions: reference: HA-TRIM28 wild type; sites S824. For orientation: Immunoblotting shows a protein as a band on a membrane.

The text below walks through data of article PMC8760265.

On to “TRIM28 (from UniProt Q13263) HA-TRIM28-S824A”, for which the “binding against the reference” value is recorded as “weaker”.
